Assay results from PMC4169507.
Residue numbers refer to the chain shown, from its start. Names may count otherwise.

Molecular target: fibronectin, P02751
Test: bacterial adherence to fibronectin-coated 96-well plates (colony counting)
Conditions: chain shown with the change; plates coated with 25 µg/ml of fibronectin; in the presence of arabinose; parent: 100; read off a plot

Chain of fibronectin, P02751 (P02751 32-2477): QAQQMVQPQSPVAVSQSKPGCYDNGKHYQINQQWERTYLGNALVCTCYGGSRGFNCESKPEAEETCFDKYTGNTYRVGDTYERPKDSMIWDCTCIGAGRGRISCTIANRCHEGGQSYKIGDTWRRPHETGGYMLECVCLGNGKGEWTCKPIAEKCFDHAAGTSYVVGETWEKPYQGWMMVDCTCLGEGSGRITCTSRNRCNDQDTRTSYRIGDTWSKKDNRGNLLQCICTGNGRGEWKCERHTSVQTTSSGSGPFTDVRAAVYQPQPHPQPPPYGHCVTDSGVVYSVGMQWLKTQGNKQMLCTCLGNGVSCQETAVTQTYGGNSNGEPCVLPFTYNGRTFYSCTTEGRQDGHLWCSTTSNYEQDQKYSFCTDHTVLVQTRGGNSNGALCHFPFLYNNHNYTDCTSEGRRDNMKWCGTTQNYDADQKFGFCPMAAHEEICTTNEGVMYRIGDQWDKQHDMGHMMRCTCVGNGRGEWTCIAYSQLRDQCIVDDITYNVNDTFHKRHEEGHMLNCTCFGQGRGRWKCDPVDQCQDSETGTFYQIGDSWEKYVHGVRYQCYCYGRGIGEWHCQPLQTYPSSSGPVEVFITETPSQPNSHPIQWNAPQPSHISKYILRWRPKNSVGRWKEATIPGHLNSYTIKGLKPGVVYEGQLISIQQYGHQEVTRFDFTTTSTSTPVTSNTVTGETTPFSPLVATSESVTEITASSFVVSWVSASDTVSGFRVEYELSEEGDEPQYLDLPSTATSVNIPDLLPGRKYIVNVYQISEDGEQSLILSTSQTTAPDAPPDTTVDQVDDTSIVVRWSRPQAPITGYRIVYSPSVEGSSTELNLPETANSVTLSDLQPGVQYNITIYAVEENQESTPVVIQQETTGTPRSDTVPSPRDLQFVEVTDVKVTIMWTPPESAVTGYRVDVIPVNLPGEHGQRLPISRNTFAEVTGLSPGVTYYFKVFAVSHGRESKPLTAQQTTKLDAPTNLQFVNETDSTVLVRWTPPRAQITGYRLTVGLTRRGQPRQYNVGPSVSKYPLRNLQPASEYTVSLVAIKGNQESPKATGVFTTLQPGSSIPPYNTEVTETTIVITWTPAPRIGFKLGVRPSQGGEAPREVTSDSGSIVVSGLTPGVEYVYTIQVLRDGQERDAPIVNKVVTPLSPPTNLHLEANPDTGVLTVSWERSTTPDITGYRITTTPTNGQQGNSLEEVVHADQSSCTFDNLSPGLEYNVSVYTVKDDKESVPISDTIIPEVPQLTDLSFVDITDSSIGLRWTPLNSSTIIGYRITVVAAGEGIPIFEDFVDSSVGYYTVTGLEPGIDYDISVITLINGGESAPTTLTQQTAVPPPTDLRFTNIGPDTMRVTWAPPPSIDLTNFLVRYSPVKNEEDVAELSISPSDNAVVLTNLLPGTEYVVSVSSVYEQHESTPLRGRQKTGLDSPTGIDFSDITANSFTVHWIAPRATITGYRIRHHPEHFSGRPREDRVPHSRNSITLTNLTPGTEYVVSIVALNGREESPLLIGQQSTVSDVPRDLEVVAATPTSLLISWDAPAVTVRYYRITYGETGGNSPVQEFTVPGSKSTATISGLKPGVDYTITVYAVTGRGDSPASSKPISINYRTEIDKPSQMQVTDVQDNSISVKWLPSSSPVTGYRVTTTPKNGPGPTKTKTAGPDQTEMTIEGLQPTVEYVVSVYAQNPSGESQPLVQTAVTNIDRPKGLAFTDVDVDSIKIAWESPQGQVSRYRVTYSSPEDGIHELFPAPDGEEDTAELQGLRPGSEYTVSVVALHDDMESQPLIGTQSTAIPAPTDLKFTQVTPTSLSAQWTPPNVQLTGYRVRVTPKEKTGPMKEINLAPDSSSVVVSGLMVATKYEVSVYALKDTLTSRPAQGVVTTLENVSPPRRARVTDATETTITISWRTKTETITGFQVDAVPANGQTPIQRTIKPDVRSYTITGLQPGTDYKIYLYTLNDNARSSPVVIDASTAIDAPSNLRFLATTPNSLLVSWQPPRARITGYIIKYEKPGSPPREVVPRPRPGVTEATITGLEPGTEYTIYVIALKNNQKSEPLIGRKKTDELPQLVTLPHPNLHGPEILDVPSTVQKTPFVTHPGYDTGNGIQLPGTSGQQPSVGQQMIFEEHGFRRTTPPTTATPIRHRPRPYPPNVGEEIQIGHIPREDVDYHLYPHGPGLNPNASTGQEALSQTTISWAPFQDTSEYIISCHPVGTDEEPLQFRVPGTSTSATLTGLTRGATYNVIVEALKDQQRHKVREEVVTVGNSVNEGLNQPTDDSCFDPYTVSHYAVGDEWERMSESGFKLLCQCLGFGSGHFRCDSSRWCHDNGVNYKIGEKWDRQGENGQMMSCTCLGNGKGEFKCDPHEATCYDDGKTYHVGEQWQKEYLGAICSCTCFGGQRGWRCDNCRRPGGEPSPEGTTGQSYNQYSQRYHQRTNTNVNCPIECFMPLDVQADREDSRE

B1: AafA, major subunit of AAF/II, on wild type EAEC 042 Q43A (protein)
chain: VAKTATSTITVVNFCDITITPATNRDVNVDRSANIDLSFTIRAPQRCADAGMRIKAWGEANHGQLLIKPQGGNKSAGFTLASPRFSYIPNNPANIMNGFVLTNPGVYQLGMQGSITPAIPLRPGLYEVVLNAELVTN
percent of parent (% of binding to Fn): 110

B2: AafA, major subunit of AAF/II, on wild type EAEC 042 T18I (protein)
chain: B1 chain with T18I, A43Q
percent of parent (% of binding to Fn): 65
